Experimental data reported in publication PMC2818874.

Target: Cytosolic His-tag version of human IRE1α (IRE1ΔN-HIS) (human)

## Cytosolic His-tag version of human IRE1α (IRE1ΔN-HIS) (domain or fragment)
  stoichiometry N: 2
